{"source": "patent US10870710B2", "about": "“Synthetic oligosaccharide subunits of the Psl exopolysaccharide of pseudomonas aeruginosa and uses thereof” (Medlmmune Limited, priority 2013, dated 2020)", "key": {"Psl": {"system": "Psl", "experiment": "mAb reactivity with Psl after mild alkaline treatment during carbohydrate purification", "type": "binding, P. aeruginosa", "conditions": "data not shown", "text": "This observation raises the possibility that the class I mAb binds to a conformational epitope or a yet to be elucidated sub-stoichiometric Psl isoform. The potential for the latter is supported by the observation that mild alkaline, but not exhaustive protease treatment, during carbohydrate purification abolishes Cam-003 reactivity while maintaining WapR-001 and WapR-016 reactivity (data not shown)."}, "P. aeruginosa": {"system": "P. aeruginosa", "conditions": "cited from earlier work"}, "[1]": {"system": "attachment of Pseudomonas aeruginosa to epithelial cells", "conditions": "mAb concentration giving max. inhibition of cell attachment; cited from earlier work"}, "[2]": {"target": "Pseudomonas aeruginosa Psl exopolysaccharide", "conditions": "anti-Psl mAb binding; cited from earlier work"}}}
{"molecule": "WapR-001: anti-Psl monoclonal antibody, class II epitope; VH SEQ ID NO: 5, VL SEQ ID NO: 6 (antibody, V domains shown, WapR-001 VH; WapR-001 VL) VH: EVQLLESGGGLVQPGGSLRLSCSASGFTFSRYPMHWVRQAPGKGLEYVSDIGTNGGSTNYADSVKGRFTISRDNSKNTVYLQMSSLRAEDTAVYHCVAGIAAAYGFDVWGQGTMVTVSS VL: QAGLTQPASVSGSPGQSITISCTGTSSDIATYNYVSWYQQHPGKAPKLMIYEGTKRPSGVSNRFSGSKSGNTASLTISGLQAEDEADYYCSSYARSYTYVFGTGTELTVL", "values": [{"measurement": "mAb reactivity after mild alkaline treatment of Psl", "setting": "Psl", "value": "maintaining"}, {"measurement": "OPK EC50", "setting": "P. aeruginosa", "value": 0.310, "unit": "µg/mL"}, {"measurement": "Cell attachment max. inhibition", "setting": "[1]", "value": 30.0, "unit": "µg/mL"}, {"measurement": "Kd", "setting": "[2]", "value": 0.84, "unit": "nM"}]}
{"molecule": "WapR-003: anti-Psl monoclonal antibody, class II epitope; VH SEQ ID NO: 9, VL SEQ ID NO: 10 (antibody, V domains shown, WapR-003 VH; WapR-003 VL) VH: QMQLVQSGGGLVQPGGSLRLSCSASGFTFSSYPMHWVRQAPGKGLDYVSDISPNGGATNYADSVKGRFTISRDNSKNTVYLQMSSLRAEDTAVYYCVMGLVPYGFDNWGQGTMVTVSS VL: QTVVTQPASVSASPGQSITISCAGTSGDVGNYNFVSWYQQHPGKAPKLLIYEGSQRPSGVSNRFSGSRSGNTASLTISGLQAEDEADYYCSSYARSYTYVFGTGTKLTVL", "values": [{"measurement": "OPK EC50", "setting": "P. aeruginosa", "value": 0.278, "unit": "µg/mL"}, {"measurement": "Cell attachment max. inhibition", "setting": "[1]", "value": 30.0, "unit": "µg/mL"}, {"measurement": "Kd", "setting": "[2]", "value": 12.2, "unit": "nM"}]}
{"molecule": "WapR-002: anti-Psl monoclonal antibody, class II epitope; VH SEQ ID NO: 7, VL SEQ ID NO: 8 (antibody, V domains shown, WapR-002 VH; WapR-002 VL) VH: QVQLVQSGGGLVQPGGSLRLSCSASGFTFSSYPMHWVRQAPGKGLDYVSDISPNGGSTNYADSVKGRFTISRDNSKNTLFLQMSSLRAEDTAVYYCVMGLVPYGFDIWGQGTLVTVSS VL: QTVVTQPASVSGSPGQSITISCTGTSSDVGGYNYVSWYQQHPGKAPKLMIYEVSNRPSGVSNHFSGSKSGNTASLTISGLQAEDEADYYCSSYTTSSTYVFGTGTKVTVL", "values": [{"measurement": "OPK EC50", "setting": "P. aeruginosa", "value": 0.396, "unit": "µg/mL"}, {"measurement": "Cell attachment max. inhibition", "setting": "[1]", "value": 30.0, "unit": "µg/mL"}, {"measurement": "Kd", "setting": "[2]", "value": 12.6, "unit": "nM"}]}
